Results on one protein are retold here after paper PMC8805217, “Crystal structure of a hypothetical protein from Giardia lamblia” (Acta Crystallographica. Section F, Structural Biology …, 2022).

The data set deals with the molecule itself. Put plainly: crystal structure; X-ray, molecular replacement, 1.35 Å; sitting-drop vapor diffusion at 290 K, protein in 20 mM HEPES pH 7.0, 300 mM NaCl, 5% glycerol, 1 mM TCEP; reservoir 100 mM Tris pH 5.5, 25% PEG 3350, 200 mM ammonium acetate.

B1: hypothetical protein from Giardia lamblia (GilaA.00312.a) (natural protein)
chain: GPGSMIYGILSKNLGMPTPTFLVCPDVVKFENVGQIAVVNGMVYLGGSVGIDKSGTLHKGLEEQTRQTFDNIRKCLEYANSGLDYIVSLNIFLSTSLSDSEEARFNELYREVFCVPATRPCRCCVRAQLQEGLLVEVVNVVAAQK
notes: hypothetical protein of Giardia lamblia GL50803_14299, 141 amino acids, amino acids 1-141 of UniProt A8BD71; Homotrimer in the crystal structure (PDB 3i3f); also called hypothetical G. lamblia protein; GL50803_14299; source: E. coli BL21(DE3)R3 Rosetta, purified (IMAC, 3C cleavage of the His tag, reverse IMAC, SEC); not shown: 6xHis, N-terminal, cleaved
On to B1, for which the “stoichiometry N” value came to 3.
